Test system: Escherichia coli TOP10
Test: shrunken log2 fold change of peptide-encoding DNA abundance (4.5 h post-induction vs induction); higher = less antimicrobial activity (less host growth inhibition)
Conditions: time post-induction: 4.5 h; library: site-saturation at positions 5, 18, 19, 20
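Further: peptides expressed intracellularly from a pBAD plasmid library in pooled LB shake-flask culture, induced with 0.3% L-arabinose, DNA abundance read by NGS, three biological replicates, DESeq2 with apeglm shrinkage.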

| Sequence | shrunken log2 fold change |
| --- | --- |
| RRIRSRPPRLPRPRPRPSVNPRP | -0.119 |
| RRIRYRPPRLPRPRPRPTMVPRP | -0.269 |
| RRIRVRPPRLPRPRPRPHELPRP | 0.118 |
| RRIRHRPPRLPRPRPRPVMEPRP | 0.105 |
| RRIRDRPPRLPRPRPRPVTCPRP | -0.00663 |
| RRIRARPPRLPRPRPRPISQPRP | 0.177 |
| RRIRVRPPRLPRPRPRPKLVPRP | 0.194 |
| RRIRCRPPRLPRPRPRPPSHPRP | -0.0142 |
| RRIRLRPPRLPRPRPRPAISPRP | 0.118 |
| RRIRMRPPRLPRPRPRPLYQPRP | -0.38 |
| RRIRVRPPRLPRPRPRPWYFPRP | -0.619 |
| RRIRDRPPRLPRPRPRPIVIPRP | -0.259 |
| RRIRWRPPRLPRPRPRPWHQPRP | 0.00792 |
| RRIRTRPPRLPRPRPRPGWCPRP | 1.42 |
| RRIRWRPPRLPRPRPRPDLMPRP | 0.325 |
| RRIRTRPPRLPRPRPRPFATPRP | 0.101 |
| RRIRVRPPRLPRPRPRPLEVPRP | 0.0693 |
| RRIRWRPPRLPRPRPRPIWVPRP | -0.0257 |
| RRIRLRPPRLPRPRPRPIHDPRP | -0.302 |
| RRIRLRPPRLPRPRPRPLHNPRP | -0.0106 |
| RRIRARPPRLPRPRPRPEIHPRP | 0.756 |
| RRIRVRPPRLPRPRPRPFTLPRP | -0.104 |
| RRIRMRPPRLPRPRPRPGHQPRP | 0.568 |

| Sequence | shrunken log2 fold change |
| --- | --- |
| RRIRSRPPRLPRPRPRPKSAPRP | 0.403 |
| RRIRTRPPRLPRPRPRPNCSPRP | -0.435 |
| RRIRCRPPRLPRPRPRPVLGPRP | 0.0642 |
| RRIRVRPPRLPRPRPRPEEDPRP | 0.0704 |
| RRIRRRPPRLPRPRPRPAQEPRP | 0.146 |
| RRIRLRPPRLPRPRPRPAMSPRP | 0.019 |
| RRIRSRPPRLPRPRPRPGCMPRP | 0.0917 |
| RRIRYRPPRLPRPRPRPHKGPRP | -0.29 |
| RRIRGRPPRLPRPRPRPDSQPRP | 0.223 |
| RRIRVRPPRLPRPRPRPSFKPRP | -0.202 |
| RRIRDRPPRLPRPRPRPTWDPRP | 0.629 |
| RRIRARPPRLPRPRPRPSMNPRP | -0.032 |
| RRIRWRPPRLPRPRPRPHGMPRP | 0.0365 |
| RRIRLRPPRLPRPRPRPCNLPRP | 0.034 |
| RRIRVRPPRLPRPRPRPKVFPRP | -0.0519 |
| RRIRERPPRLPRPRPRPAYYPRP | -0.356 |
| RRIRLRPPRLPRPRPRPEDEPRP | 0.00911 |
| RRIRARPPRLPRPRPRPNGEPRP | 0.189 |
| RRIRIRPPRLPRPRPRPKQYPRP | -0.474 |
| RRIRVRPPRLPRPRPRPFNLPRP | -0.103 |
| RRIRARPPRLPRPRPRPSKFPRP | -0.163 |
| RRIRPRPPRLPRPRPRPNTDPRP | -0.374 |
| RRIRDRPPRLPRPRPRPSLLPRP | 0.05 |

| Sequence | shrunken log2 fold change |
| --- | --- |
| RRIRLRPPRLPRPRPRPWKWPRP | -0.184 |
| RRIRERPPRLPRPRPRPITAPRP | -0.573 |
| RRIRKRPPRLPRPRPRPFQKPRP | 0.0267 |
| RRIRPRPPRLPRPRPRPDCLPRP | 0.0136 |
| RRIRGRPPRLPRPRPRPMPPPRP | 1.23 |
| RRIRDRPPRLPRPRPRPPKSPRP | 0.555 |
| RRIRCRPPRLPRPRPRPADEPRP | 0.431 |
| RRIRMRPPRLPRPRPRPFLGPRP | 0.254 |
| RRIRSRPPRLPRPRPRPWVPPRP | 0.177 |
| RRIRMRPPRLPRPRPRPHCMPRP | -0.122 |
| RRIRRRPPRLPRPRPRPKWHPRP | 0.593 |
| RRIRERPPRLPRPRPRPRRNPRP | -0.0448 |
| RRIRRRPPRLPRPRPRPGRWPRP | 0.591 |
| RRIRYRPPRLPRPRPRPRKLPRP | -0.14 |
| RRIRMRPPRLPRPRPRPHSSPRP | 0.0203 |
| RRIRSRPPRLPRPRPRPQTKPRP | -0.0915 |
| RRIRFRPPRLPRPRPRPDNNPRP | -0.4 |
| RRIRCRPPRLPRPRPRPLYSPRP | -0.672 |
| RRIRRRPPRLPRPRPRPVDSPRP | 0.127 |
| RRIRCRPPRLPRPRPRPMDGPRP | 0.013 |
| RRIRQRPPRLPRPRPRPYWVPRP | -0.264 |
| RRIRLRPPRLPRPRPRPWWPPRP | 0.0144 |
| RRIRSRPPRLPRPRPRPGMVPRP | 0.23 |

| Sequence | shrunken log2 fold change |
| --- | --- |
| RRIRWRPPRLPRPRPRPAVVPRP | 0.0979 |
| RRIRTRPPRLPRPRPRPIVHPRP | -0.0385 |
| RRIRIRPPRLPRPRPRPGWHPRP | -0.0557 |
| RRIRMRPPRLPRPRPRPNSLPRP | -0.0986 |
| RRIRMRPPRLPRPRPRPALEPRP | 0.347 |
| RRIRSRPPRLPRPRPRPAIAPRP | -0.00626 |
| RRIRHRPPRLPRPRPRPIFCPRP | -0.184 |
| RRIRIRPPRLPRPRPRPPLQPRP | 0.0345 |
| RRIRMRPPRLPRPRPRPVGCPRP | 0.972 |
| RRIRSRPPRLPRPRPRPFHYPRP | -0.429 |
| RRIRWRPPRLPRPRPRPGVNPRP | 0.0981 |
| RRIRTRPPRLPRPRPRPWGVPRP | -0.0284 |
| RRIRSRPPRLPRPRPRPAVWPRP | 0.765 |
| RRIRQRPPRLPRPRPRPHSIPRP | 0.0425 |
| RRIRARPPRLPRPRPRPLGQPRP | 0.432 |
| RRIRDRPPRLPRPRPRPNEWPRP | -0.00174 |
| RRIRSRPPRLPRPRPRPRTRPRP | 0.512 |
| RRIRLRPPRLPRPRPRPFWIPRP | -0.283 |
| RRIRLRPPRLPRPRPRPMWRPRP | 0.194 |
| RRIRLRPPRLPRPRPRPKKCPRP | -0.198 |
| RRIRLRPPRLPRPRPRPCLPPRP | -0.0626 |
| RRIRRRPPRLPRPRPRPEPNPRP | -0.00852 |
